Positions count from the first letter of the chain named. Names may count otherwise.
T1: human FcγRIIB (human, UniProt P31994 43-310)
T1 construct: whole, on cells; also called hFcγRIIB
T1 sequence (looked up): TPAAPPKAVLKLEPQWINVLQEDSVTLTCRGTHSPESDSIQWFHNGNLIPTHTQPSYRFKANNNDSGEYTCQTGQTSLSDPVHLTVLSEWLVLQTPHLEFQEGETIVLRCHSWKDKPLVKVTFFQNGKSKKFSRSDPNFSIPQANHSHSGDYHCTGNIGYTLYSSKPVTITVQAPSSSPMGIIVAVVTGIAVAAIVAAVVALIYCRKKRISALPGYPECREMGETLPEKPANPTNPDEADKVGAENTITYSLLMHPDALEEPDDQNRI

T2: human FcγRIIA(R131) (human, UniProt P12318 34-317)
T2 construct: whole, on cells; Allelic variant with Arg at 131 (so in the source)
T2 sequence (looked up): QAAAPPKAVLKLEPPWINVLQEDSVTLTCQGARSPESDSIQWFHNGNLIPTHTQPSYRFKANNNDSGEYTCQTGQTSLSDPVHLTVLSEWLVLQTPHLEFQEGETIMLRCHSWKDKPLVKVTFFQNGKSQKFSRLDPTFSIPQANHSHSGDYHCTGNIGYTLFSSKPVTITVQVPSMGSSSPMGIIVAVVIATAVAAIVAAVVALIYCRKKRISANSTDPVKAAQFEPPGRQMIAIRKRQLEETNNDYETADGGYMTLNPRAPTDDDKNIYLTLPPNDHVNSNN

T3: human FcγRIIA (H131) (human, UniProt P12318 34-317)
T3 construct: whole, on cells; Allelic variant with His at 131 (mature numbering as printed)
T3 sequence (looked up): T2 sequence (looked up) with R134H

B1: humanized antibody #2B (antibody, human IgG1, kappa)
heavy: not shown
light: EIVMTQSPATLSVSPGERATLSCKASQDVSTAVAWYQQKPGQAPRLLIYWASTRHTGIPARFSGSRSGTEYTLTISSLQSEDFAVYYCQQDYSTPPTFGGGTKVEIKRTVAAPSVFIFPPSDEQLKSGTASVVCLLNNFYPREAKVQWKVDNALQSGNSQESVTEQDSKDSTYSLSSTLTLSKADYEKHKVYACEVTHQGLSSPVTKSFNRGEC
notes: Humanized 14G9, IGHV1-46*01 version B heavy and IGKV3-15*01 version B light; also called Ab #2B; mAb #2B; copies: 2 + 2
B2: humanized antibody #2B2 (mutations L234A, L235E and P331S) (antibody, human IgG1, kappa)
heavy: QVQLVQSGAEVKKPGASVKVSCKASGYTFTNYWIHWVRQAPGQGLEWIGNIDPSDTRTHYNQKFKDRATLTVDKSTSTAYMELSSLRSEDTAVYYCARQTLYYEALDYWGQGTLVTVSSASTKGPSVFPLAPSSKSTSGGTAALGCLVKDYFPEPVTVSWNSGALTSGVHTFPAVLQSSGLYSLSSVVTVPSSSLGTQTYICNVNHKPSNTKVDKRVEPKSCDKTHTCPPCPAPEAEGGPSVFLFPPKPKDTLMISRTPEVTCVVVDVSHEDPEVKFNWYVDGVEVHNAKTKPREEQYNSTYRVVSVLTVLHQDWLNGKEYKCKVSNKALPASIEKTISKAKGQPREPQVYTLPPSREEMTKNQVSLTCLVKGFYPSDIAVEWESNGQPENNYKTTPPVLDSDGSFFLYSKLTVDKSRWQQGNVFSCSVMHEALHNHYTQKSLSLSPGK
light: B1 light
notes: #2B with L234A, L235E and P331S in the heavy chain constant region; also called Ab #2B2; #2B2 humanized mAb; copies: 2 + 2

Legend:
[1] = target: T4, recombinant human sPLA2-GIB (mature secreted group IB pancreatic phospholipase A2) (human, UniProt P04054 23-148); experiment: cell-based or functional assay
T4 sequence (P04054 23-148): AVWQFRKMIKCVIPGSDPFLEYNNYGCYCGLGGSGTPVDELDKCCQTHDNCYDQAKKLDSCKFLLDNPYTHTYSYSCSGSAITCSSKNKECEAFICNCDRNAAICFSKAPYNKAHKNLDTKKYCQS

[2] = target: T4, recombinant human sPLA2-GIB (mature …); experiment: SPR (BIAcore 2000), antibody captured, antigen in solution
Description: (§1) The affinity constants (KD) of the pro-sPLA2-GIB and sPLA2-GIB binding to the #2B, #2B1 and #2B2 antibodies were determined by surface kinetics on a real-time biosensor surface plasmon resonance assay (BIAcore™). More specifically, the affinity of the antibodies for human pro-sPLA2-IB and sPLA2-IB was measured using a BIAcore® 2000. The antibody was captured on an anti-mouse IgG surface and exposed to various concentrations of recombinant pro-sPLA2-IB and sPLA2-IB protein. Kinetic analysis using BIAevaluation™ software was performed to obtain the association and dissociation rate constants.
as §1, with “to” for “to the #2B,”, “#2B2” for “#2B2 antibodies”, “(BIAcore™).” for “(BIAcore™). More specifically, the affinity of the antibodies for human pro-sPLA2-IB and sPLA2-IB was measured using a BIAcore® 2000.”, “constants (Table 7).” for “constants.”

[3] = target: T5, recombinant human pro-sPLA2-GIB (human, UniProt P04054 16-148); experiment: as above
T5 construct: also called pro-sPLA2-IB; proPLA2-GIB
T5 sequence (P04054 16-148): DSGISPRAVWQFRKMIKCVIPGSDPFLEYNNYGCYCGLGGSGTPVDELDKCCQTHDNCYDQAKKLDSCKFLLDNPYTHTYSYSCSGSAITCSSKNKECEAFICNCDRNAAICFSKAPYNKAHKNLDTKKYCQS
Description: as §1
as §1, with “to” for “to the #2B,”, “#2B2” for “#2B2 antibodies”, “(BIAcore™).” for “(BIAcore™). More specifically, the affinity of the antibodies for human pro-sPLA2-IB and sPLA2-IB was measured using a BIAcore® 2000.”, “constants (Table 7).” for “constants.”

[4] = target: T6, human FcγRI (human, UniProt P12314 16-374); experiment: flow cytometry, monomeric IgG (100 ng/mL) on CHO cells expressing the receptor
T6 construct: whole, on cells; also called hFcγRI
T6 sequence (P12314 16-374): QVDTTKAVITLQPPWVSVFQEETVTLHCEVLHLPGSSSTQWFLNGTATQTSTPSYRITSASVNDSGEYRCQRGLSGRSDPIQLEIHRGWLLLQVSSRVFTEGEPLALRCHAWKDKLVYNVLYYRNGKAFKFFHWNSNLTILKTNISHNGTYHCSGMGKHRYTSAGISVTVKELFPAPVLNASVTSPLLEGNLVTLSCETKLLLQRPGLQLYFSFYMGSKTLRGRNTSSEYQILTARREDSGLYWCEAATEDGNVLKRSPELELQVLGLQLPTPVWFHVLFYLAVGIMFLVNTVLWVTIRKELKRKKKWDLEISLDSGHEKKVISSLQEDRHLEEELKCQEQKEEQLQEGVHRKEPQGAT
Description: (§2) Monomeric IgG binding was tested by incubating the #2B, #2B1 and #2B2 antibodies (100 ng/mL) with 1×10⁵ CHO cells stably expressing human FcγRs for 30 min on ice. The cells were then washed, detached, fixed, and analyzed by flow cytometry (FACSCalibur; BD Biosciences).
(§3) The binding of monomeric #2B, #2B1 and #2B2 to human FcγRs was tested by flow cytometry by incubating the mAbs with CHO cells stably expressing human FcγRI, FcγRIIA (H131), FcγRIIA(R131), FcγRIIB, FcγRIIIA(F176), FcγRIIIA(V176), FcγRIIIB(NA1), FcγRIIIB(NA2), and FcγRIIIB(SH), (REF P. Bruhns). As presented in FIG. 9, #2B is binding to hFcγRI and hFcγRIIIA(V176) only, whereas no monomeric binding of #2B1 and #2B2 to all tested hFcγRs was observed. Antibody-antigen immune complex was tested by first incubating the mAb with the antigen and then, incubating the immune complexes formed with CHO cells stably expressing human FcγRs. The immune complexe of #2B is binding to all tested hFcγRs, except hFcγRIIB (FIG. 10). Weak binding is observed for immune complex of #2B1 to hFcγRIIIA(V176) (data not shown), whereas no immune complex binding of #2B2 to any tested hFcγRs (data not shown).

[5] = target: T7, human FcγRIIIA(V176) (human, UniProt P08637 17-254); experiment: as above
T7 construct: whole, on cells; also called hFcγRIIIA(V176)
T7 sequence (P08637 17-254 F176V limits assumed): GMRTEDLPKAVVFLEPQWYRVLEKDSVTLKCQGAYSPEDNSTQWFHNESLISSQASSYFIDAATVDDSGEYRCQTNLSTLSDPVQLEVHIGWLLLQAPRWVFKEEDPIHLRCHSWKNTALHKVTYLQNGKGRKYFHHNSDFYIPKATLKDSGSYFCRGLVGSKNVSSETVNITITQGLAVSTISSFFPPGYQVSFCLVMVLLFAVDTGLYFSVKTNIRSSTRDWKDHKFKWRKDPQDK
Description: as §2, §3

[6] = target: T4, recombinant human sPLA2-GIB (mature …); experiment: competitive ELISA: constant antibody premixed with dilutions of soluble antigen, free antibody caught on antigen-coated plate
Description: (§4) Binding affinities of the humanized antibodies to pro-sPLA2-GIB and sPLA2-GIB were measured by plate-based competition immunoassay. For the competition ELISA, briefly, constant amounts of antibody at different levels were premixed with serial dilutions of antigen protein, human sPLA2-GIB or pro-sPLA2-GIB, ranging from 0 to 10 μg/ml, and incubated for two hours at room temperature to reach pseudo-binding equilibrium between the antibody and antigen. These solutions were then transferred to 96-well sPLA2-GIB or pro-sPLA2-GIB pre-coated plates to allow the free-antibody in the mixtures to bind to plate-coated sPLA2-GIB or pro-sPLA2-GIB. The plates were typically coated with 30 to 100 ng of human sPLA2-GIB or pro-sPLA2-GIB protein in PBS solution overnight at 4° C. followed by BSA nonspecific blocking. After washing off excess antibody in solution, plate-bound antibodies were detected with an HRP-conjugated goat anti-mouse IgG or IgA polyclonal antibody reagent and developed using colorimetric substrate. The dependency of the signals on the concentrations of antigen in solution was analyzed with a 4-parameter fit analysis using Prism™ software (Graph Pad) and reported as IC50.
(§5) The respective binding affinities of the humanized antibodies to human pro-sPLA2-GIB and human sPLA2-GIB were measured by plate-based competition immunoassay. Briefly, constant amounts of antibody at different levels were premixed with serial dilutions of antigen proteins to reach pseudo-binding equilibrium between the antibody and antigen. These solutions were then transferred to antigen pre-coated plates to allow the free-antibody in the mixtures to bind to plate-coated sPLA2-GIB or pro-sPLA2-GIB. Plate-bound antibodies were detected with an HRP-conjugated polyclonal antibody. Data were fitted with a 4PL logistic non-linear regression model and the relative IC50 values were estimated from the model (Table 4).

[7] = target: T5, recombinant human pro-sPLA2-GIB; experiment: as above
Description: as §4, §5

[8] = target: T8, human FcγRIIIA(F176) (human, UniProt P08637 17-254); experiment: flow cytometry, monomeric IgG on CHO cells expressing the receptor
T8 construct: whole, on cells
T8 sequence (P08637 17-254): as the sequence (P08637 17-254 F176V limits assumed) above, with V160F counted along it
Description: as §2, §3

[9] = target: T9, human FcγRIIIB(NA2) (human, UniProt O75015 17-200); experiment: as above
T9 construct: whole, on cells
T9 sequence (O75015 17-200 N65S): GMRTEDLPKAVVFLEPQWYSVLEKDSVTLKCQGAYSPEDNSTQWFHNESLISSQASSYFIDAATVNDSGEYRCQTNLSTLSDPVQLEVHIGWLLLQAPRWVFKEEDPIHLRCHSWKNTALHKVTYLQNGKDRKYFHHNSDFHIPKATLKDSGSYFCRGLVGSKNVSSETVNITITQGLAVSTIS
Description: as §2, §3

[10] = target: T6, human FcγRI; experiment: as above
Description: as §2, §3

[11] = target: T1, human FcγRIIB; experiment: as above
Description: as §2, §3

[12] = target: T7, human FcγRIIIA(V176); experiment: as above
Description: as §2, §3

[13] = target: T2, human FcγRIIA(R131); experiment: as above
Description: as §2, §3

[14] = target: T10, human FcγRIIIB(NA1) (human, UniProt O75015 17-200); experiment: as above
T10 construct: whole, on cells
T10 sequence (O75015 other isoform, or with tags, fused parts or gaps): as the sequence (O75015 17-200 N65S) above, with S20R, S49N, N66D, I90V counted along it
Description: as §2, §3

[15] = target: T3, human FcγRIIA (H131); experiment: as above
Description: as §2, §3

[16] = target: T11, human FcγRIIIB(SH) (human, UniProt O75015 17-200); experiment: as above
T11 construct: whole, on cells
T11 sequence (O75015 17-200 N65S/A78D): as the sequence (O75015 17-200 N65S) above, with A62D counted along it
Description: as §2, §3

Binder	Kd [2] [nM]	koff [2] [s⁻¹]	kon [2] [M⁻¹ s⁻¹]	t½ [2] [min]	Kd [3] [nM]	koff [3] [s⁻¹]	kon [3] [M⁻¹ s⁻¹]	t½ [3] [min]	other results
B1	0.786	0.00225	2.89e+06	5.1	785	0.142	176000	0.08	EC50 for the restoration of the sPLA2-IB effect on IL-7 induced phosphoSTAT5 nuclear translocation in human CD4 T cells (75 nM sPLA2-GIB) [1]: 3.7 ng/mL; binding result [4]: binds; binding result [5]: binds; IC50 [6]: 2.3 nM; IC50 [7]: 341 nM
B2	0.796	0.00247	3.02e+06	4.7	880	0.146	164000	0.079	binding result [8]: no binding (tested: 100 ng/mL); binding result [9]: no binding (tested: 100 ng/mL); binding result [10]: no binding (tested: 100 ng/mL); binding result [11]: no binding (tested: 100 ng/mL); binding result [12]: no binding (tested: 100 ng/mL); binding result [13]: no binding (tested: 100 ng/mL); binding result [14]: no binding (tested: 100 ng/mL); binding result [15]: no binding (tested: 100 ng/mL); binding result [16]: no binding (tested: 100 ng/mL)

From patent US20210047432A1 (DIACCURATE, published 2021)
